Source: publication PMC10786891, “Massively parallel profiling of RNA-targeting CRISPR-Cas13d”

Molecular target: T1, EsCas13d, nuclease-dead (Eubacterium siraeum, UniProt B0MS50, R295A;H300A;R849A;H854A)
T1 sequence: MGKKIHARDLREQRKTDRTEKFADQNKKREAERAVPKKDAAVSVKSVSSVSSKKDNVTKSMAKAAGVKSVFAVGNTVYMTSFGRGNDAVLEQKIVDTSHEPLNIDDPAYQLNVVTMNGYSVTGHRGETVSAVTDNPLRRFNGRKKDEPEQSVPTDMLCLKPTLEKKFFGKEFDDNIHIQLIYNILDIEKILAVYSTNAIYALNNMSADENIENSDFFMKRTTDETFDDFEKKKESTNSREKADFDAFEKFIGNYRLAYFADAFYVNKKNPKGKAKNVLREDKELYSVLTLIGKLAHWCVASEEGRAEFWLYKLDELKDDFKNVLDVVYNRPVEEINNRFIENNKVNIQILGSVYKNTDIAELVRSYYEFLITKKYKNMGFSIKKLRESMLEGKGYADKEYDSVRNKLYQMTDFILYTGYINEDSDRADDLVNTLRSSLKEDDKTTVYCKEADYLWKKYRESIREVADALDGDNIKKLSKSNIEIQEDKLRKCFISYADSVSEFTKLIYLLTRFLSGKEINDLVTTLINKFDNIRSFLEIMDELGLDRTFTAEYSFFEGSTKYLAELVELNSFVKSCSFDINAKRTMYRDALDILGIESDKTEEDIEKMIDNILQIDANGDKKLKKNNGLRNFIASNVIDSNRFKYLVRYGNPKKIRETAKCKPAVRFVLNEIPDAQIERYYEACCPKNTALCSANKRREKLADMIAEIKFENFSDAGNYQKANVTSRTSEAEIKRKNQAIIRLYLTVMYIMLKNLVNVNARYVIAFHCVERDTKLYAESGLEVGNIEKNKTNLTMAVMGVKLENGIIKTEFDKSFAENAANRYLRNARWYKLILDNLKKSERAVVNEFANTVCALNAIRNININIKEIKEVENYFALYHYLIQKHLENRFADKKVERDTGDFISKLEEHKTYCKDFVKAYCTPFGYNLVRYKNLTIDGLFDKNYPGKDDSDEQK
Experiment: crRNA (strand 1, pre-loaded); Mg2+; 40 mM Tris-HCl pH 7.5, 150 mM NaCl, 6 mM MgCl2, 1 mM DTT, 0.1% Tween-20, 0.2 mg/ml BSA; 25 C; 10 min per concentration, then washed
Conditions: tags: His6-TwinStrep-SUMO cleaved; N-terminal SNAP kept (SNAP-Surface 488); label: 3' end held by stalled T7 RNA polymerase

B1: target 1 insG 3' of 22,insU 3' of 6 (mixed)
RNA 1: CACCCGUGCAAAAAUGCAGGGGUCUAAAACUGAGCGGAUAACCUCUCUAUGG
RNA 2: GGGAAUGGAUCCACAUCUACGAAUUCGUACGCAUAGAGAGGUUAUCCUGCUCACCGAGAUCGGAAGAGCACACGU
Kd: 49 ± 7 nM

B2: target 1 A9U,U11G (mixed)
RNA 1: CACCCGUGCAAAAAUGCAGGGGUCUAAAACUGAGCGGAUAACCUCUCUAUGG
RNA 2: GGGAAUGGAUCCACAUCUACGAAUUCGUACCAUAGAGAGGGUUUCCGCUCACCGAGAUCGGAAGAGCACACGU
Kd: 10.1 ± 0.8 nM

B3: target 1 C4A,G13A (mixed)
RNA 1: CACCCGUGCAAAAAUGCAGGGGUCUAAAACUGAGCGGAUAACCUCUCUAUGG
RNA 2: GGGAAUGGAUCCACAUCUACGAAUUCGUACCAUAGAGAAGUUAUCCGAUCACCGAGAUCGGAAGAGCACACGU
Kd: 14 ± 4 nM

B4: target 1 insG 3' of 21,insU 3' of 21 (mixed)
RNA 1: CACCCGUGCAAAAAUGCAGGGGUCUAAAACUGAGCGGAUAACCUCUCUAUGG
RNA 2: GGGAAUGGAUCCACAUCUACGAAUUCGUACCGUAUAGAGAGGUUAUCCGCUCACCGAGAUCGGAAGAGCACACGU
Kd: 17.1 ± 1.2 nM

B5: target 1 insG 3' of 22,insC 3' of 9 (mixed)
RNA 1: CACCCGUGCAAAAAUGCAGGGGUCUAAAACUGAGCGGAUAACCUCUCUAUGG
RNA 2: GGGAAUGGAUCCACAUCUACGAAUUCGUACGCAUAGAGAGGUUACUCCGCUCACCGAGAUCGGAAGAGCACACGU
Kd: 26.3 ± 1.6 nM

B6: target 1 complement block 5-12 (mixed)
RNA 1: CACCCGUGCAAAAAUGCAGGGGUCUAAAACUGAGCGGAUAACCUCUCUAUGG
RNA 2: GGGAAUGGAUCCACAUCUACGAAUUCGUACCAUAGAGAGCAAUAGGCCUCACCGAGAUCGGAAGAGCACACGU
Kd: 15.8 ± 1.5 nM

B7: target 1 insA 3' of 8,insG 3' of 2 (mixed)
RNA 1: CACCCGUGCAAAAAUGCAGGGGUCUAAAACUGAGCGGAUAACCUCUCUAUGG
RNA 2: GGGAAUGGAUCCACAUCUACGAAUUCGUACCAUAGAGAGGUUAUACCGCUCGACCGAGAUCGGAAGAGCACACGU
Kd: 16.7 ± 0.8 nM

B8: target 1 U3C,U10G (mixed)
RNA 1: CACCCGUGCAAAAAUGCAGGGGUCUAAAACUGAGCGGAUAACCUCUCUAUGG
RNA 2: GGGAAUGGAUCCACAUCUACGAAUUCGUACCAUAGAGAGGUGAUCCGCCCACCGAGAUCGGAAGAGCACACGU
Kd: 26 ± 2.7 nM

B9: target 1 C7G,G13U (mixed)
RNA 1: CACCCGUGCAAAAAUGCAGGGGUCUAAAACUGAGCGGAUAACCUCUCUAUGG
RNA 2: GGGAAUGGAUCCACAUCUACGAAUUCGUACCAUAGAGAUGUUAUGCGCUCACCGAGAUCGGAAGAGCACACGU
Kd: 54 ± 13 nM

B10: target 1 insU 3' of 17,insC 3' of 13 (mixed)
RNA 1: CACCCGUGCAAAAAUGCAGGGGUCUAAAACUGAGCGGAUAACCUCUCUAUGG
RNA 2: GGGAAUGGAUCCACAUCUACGAAUUCGUACCAUAGUAGAGCGUUAUCCGCUCACCGAGAUCGGAAGAGCACACGU
Kd: 44 ± 9 nM

B11: target 1 U10C,C21A (mixed)
RNA 1: CACCCGUGCAAAAAUGCAGGGGUCUAAAACUGAGCGGAUAACCUCUCUAUGG
RNA 2: GGGAAUGGAUCCACAUCUACGAAUUCGUACAAUAGAGAGGUCAUCCGCUCACCGAGAUCGGAAGAGCACACGU
Kd: 60 ± 8 nM

B12: target 1 insA 3' of 19,insC 3' of 13 (mixed)
RNA 1: CACCCGUGCAAAAAUGCAGGGGUCUAAAACUGAGCGGAUAACCUCUCUAUGG
RNA 2: GGGAAUGGAUCCACAUCUACGAAUUCGUACCAUAAGAGAGCGUUAUCCGCUCACCGAGAUCGGAAGAGCACACGU
Kd: 35.3 ± 3.3 nM

B13: target 1 insC 3' of 20,insC 3' of 16 (mixed)
RNA 1: CACCCGUGCAAAAAUGCAGGGGUCUAAAACUGAGCGGAUAACCUCUCUAUGG
RNA 2: GGGAAUGGAUCCACAUCUACGAAUUCGUACCACUAGACGAGGUUAUCCGCUCACCGAGAUCGGAAGAGCACACGU
Kd: 16 ± 3 nM

B14: target 1 insU 3' of 21,insA 3' of 17 (mixed)
RNA 1: CACCCGUGCAAAAAUGCAGGGGUCUAAAACUGAGCGGAUAACCUCUCUAUGG
RNA 2: GGGAAUGGAUCCACAUCUACGAAUUCGUACCUAUAGAAGAGGUUAUCCGCUCACCGAGAUCGGAAGAGCACACGU
Kd: ~100 nM

B15: target 1 insU 3' of 21,insU 3' of 7 (mixed)
RNA 1: CACCCGUGCAAAAAUGCAGGGGUCUAAAACUGAGCGGAUAACCUCUCUAUGG
RNA 2: GGGAAUGGAUCCACAUCUACGAAUUCGUACCUAUAGAGAGGUUAUCUCGCUCACCGAGAUCGGAAGAGCACACGU
Kd: 54 ± 4 nM

B16: target 1 insU 3' of 14,insC 3' of 14 (mixed)
RNA 1: CACCCGUGCAAAAAUGCAGGGGUCUAAAACUGAGCGGAUAACCUCUCUAUGG
RNA 2: GGGAAUGGAUCCACAUCUACGAAUUCGUACCAUAGAGAUCGGUUAUCCGCUCACCGAGAUCGGAAGAGCACACGU
Kd: 37 ± 4 nM

B17: target 1 insA 3' of 12,insU 3' of 1 (mixed)
RNA 1: CACCCGUGCAAAAAUGCAGGGGUCUAAAACUGAGCGGAUAACCUCUCUAUGG
RNA 2: GGGAAUGGAUCCACAUCUACGAAUUCGUACCAUAGAGAGGAUUAUCCGCUCAUCCGAGAUCGGAAGAGCACACGU
Kd: 37 ± 10 nM

B18: target 1 insU 3' of 22,insA 3' of 7 (mixed)
RNA 1: CACCCGUGCAAAAAUGCAGGGGUCUAAAACUGAGCGGAUAACCUCUCUAUGG
RNA 2: GGGAAUGGAUCCACAUCUACGAAUUCGUACUCAUAGAGAGGUUAUCACGCUCACCGAGAUCGGAAGAGCACACGU
Kd: 21.9 ± 1.3 nM

B19: target 1 G5U,C21U (mixed)
RNA 1: CACCCGUGCAAAAAUGCAGGGGUCUAAAACUGAGCGGAUAACCUCUCUAUGG
RNA 2: GGGAAUGGAUCCACAUCUACGAAUUCGUACUAUAGAGAGGUUAUCCUCUCACCGAGAUCGGAAGAGCACACGU
Kd: 5.96 ± 0.31 nM

B20: target 1 G12C,A16G (mixed)
RNA 1: CACCCGUGCAAAAAUGCAGGGGUCUAAAACUGAGCGGAUAACCUCUCUAUGG
RNA 2: GGGAAUGGAUCCACAUCUACGAAUUCGUACCAUAGGGAGCUUAUCCGCUCACCGAGAUCGGAAGAGCACACGU
Kd: 75 ± 10 nM

B21: target 1 insG 3' of 7,insA 3' of 7 (mixed)
RNA 1: CACCCGUGCAAAAAUGCAGGGGUCUAAAACUGAGCGGAUAACCUCUCUAUGG
RNA 2: GGGAAUGGAUCCACAUCUACGAAUUCGUACCAUAGAGAGGUUAUCGACGCUCACCGAGAUCGGAAGAGCACACGU
Kd: 10.5 ± 0.7 nM

B22: target 1 U11G (mixed)
RNA 1: CACCCGUGCAAAAAUGCAGGGGUCUAAAACUGAGCGGAUAACCUCUCUAUGG
RNA 2: GGGAAUGGAUCCACAUCUACGAAUUCGUACCAUAGAGAGGGUAUCCGCUCACCGAGAUCGGAAGAGCACACGU
Kd: 22.4 ± 1.2 nM

B23: target 1 insA 3' of 15,insG 3' of 2 (mixed)
RNA 1: CACCCGUGCAAAAAUGCAGGGGUCUAAAACUGAGCGGAUAACCUCUCUAUGG
RNA 2: GGGAAUGGAUCCACAUCUACGAAUUCGUACCAUAGAGAAGGUUAUCCGCUCGACCGAGAUCGGAAGAGCACACGU
Kd: 6.7 ± 0.6 nM

B24: target 1 G5A,U11G (mixed)
RNA 1: CACCCGUGCAAAAAUGCAGGGGUCUAAAACUGAGCGGAUAACCUCUCUAUGG
RNA 2: GGGAAUGGAUCCACAUCUACGAAUUCGUACCAUAGAGAGGGUAUCCACUCACCGAGAUCGGAAGAGCACACGU
Kd: 51 ± 5 nM

B25: target 1 C4A,G15A (mixed)
RNA 1: CACCCGUGCAAAAAUGCAGGGGUCUAAAACUGAGCGGAUAACCUCUCUAUGG
RNA 2: GGGAAUGGAUCCACAUCUACGAAUUCGUACCAUAGAAAGGUUAUCCGAUCACCGAGAUCGGAAGAGCACACGU
Kd: 20.9 ± 1.8 nM

B26: target 1 insU 3' of 18,insA 3' of 13 (mixed)
RNA 1: CACCCGUGCAAAAAUGCAGGGGUCUAAAACUGAGCGGAUAACCUCUCUAUGG
RNA 2: GGGAAUGGAUCCACAUCUACGAAUUCGUACCAUAUGAGAGAGUUAUCCGCUCACCGAGAUCGGAAGAGCACACGU
Kd: 22.6 ± 2.4 nM

B27: target 1 U10A,A14G (mixed)
RNA 1: CACCCGUGCAAAAAUGCAGGGGUCUAAAACUGAGCGGAUAACCUCUCUAUGG
RNA 2: GGGAAUGGAUCCACAUCUACGAAUUCGUACCAUAGAGGGGUAAUCCGCUCACCGAGAUCGGAAGAGCACACGU
Kd: 12.3 ± 0.5 nM

B28: target 1 insA 3' of 11,insG 3' of 4 (mixed)
RNA 1: CACCCGUGCAAAAAUGCAGGGGUCUAAAACUGAGCGGAUAACCUCUCUAUGG
RNA 2: GGGAAUGGAUCCACAUCUACGAAUUCGUACCAUAGAGAGGUAUAUCCGCGUCACCGAGAUCGGAAGAGCACACGU
Kd: 9.7 ± 0.5 nM
